Source: the supplement of paper PMC5998384

Legend:
HeLa Kyoto [1] = test: solubility change mitosis vs G1/S (difference of NP-40 vs SDS log2 ratios) (log2 ratio difference); higher = more soluble in mitosis
HeLa Kyoto [2] = test: melting temperature (median over replicates), in situ; higher = more thermally stable
HeLa Kyoto [3] = test: thermal stability score vs G1/S (z-score of summed log2 fold changes over temperatures); higher = more thermally stable than in G1/S
HeLa Kyoto [4] = test: solubility in G1/S (NP-40 vs SDS abundance) (log2 ratio); higher = more soluble; settings: cell cycle stage: G1/S
[5] = cell cycle stage: early G1 (4.5 h after nocodazole release)
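Throughout, for melting temperature (median over replicates), in situ: HeLa Kyoto cells synchronized by double thymidine or nocodazole block, proteins quantified by TMT10plex mass spectrometry, three independent biological replicates.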
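Throughout, for solubility change mitosis vs G1/S (difference of NP-40 vs SDS log2 ratios): synchronized HeLa Kyoto cells (double thymidine block for G1/S, nocodazole release for mitosis), protein amounts in NP-40 versus SDS lysates quantified by mass spectrometry, three biological replicates.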
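Throughout, for solubility in G1/S (NP-40 vs SDS abundance): HeLa Kyoto cells arrested at G1/S by double thymidine block, proteins quantified by TMT10plex mass spectrometry in mild NP-40 versus SDS extracts, three biological replicates.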
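Throughout, for thermal stability score vs G1/S (z-score of summed log2 fold changes over temperatures): synchronized HeLa Kyoto cells, proteins quantified by TMT10plex mass spectrometry, three biological replicates, mitosis taken 0.5 h after nocodazole release, G1/S directly after double thymidine block.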

Sequence	solubility change mitosis (log2) (HeLa Kyoto [1])	melting temperature (HeLa Kyoto [2]; cell cycle stage: G1/S)	melting temperature (HeLa Kyoto [2]; cell cycle stage: mitosis)	thermal stability score (HeLa Kyoto [3]; [5])	thermal stability score (HeLa Kyoto [3]; cell cycle stage: mitosis)	solubility in G1/S (log2) (HeLa Kyoto [4])
MSVDMNSQGSDSNEEDYDPNCEEEEEEEEDDPGDIEDYYVGVASDVEQQGADAFDPEEYQFTCLTYKESEGALNEHMTSLASVLKVSHSVAKLILVNFHWQVSEILDRYKSNSAQLLVEARVQPNPSKHVPTSHPPHHCAVCMQFVRKENLLSLACQHQFCRSCWEQHCSVLVKDGVGVGVSCMAQDCPLRTPEDFVFPLLPNEELREKYRRYLFRDYVESHYQLQLCPGADCPMVIRVQEPRARRVQCNRCNEVFCFKCRQMYHAPTDCATIRKWLTKCADDSETANYISAHTKDCPKCNICIEKNGGCNHMQCSKCKHDFCWMCLGDWKTHGSEYYECSRYKENPDIVNQSQQAQAREALKKYLFYFERWENHNKSLQLEAQTYQRIHEKIQERVMNNLGTWIDWQYLQNAAKLLAKCRYTLQYTYPYAYYMESGPRKKLFEYQQAQLEAEIENLSWKVERADSYDRGDLENQMHIAEQRRRTLLKDFHDT [ARIH2]	-0.151	51.8 °C	52.3 °C	0.643	-0.0869	-0.242
MSVGCACPGCSSKSFKLYSPKEPPNGNAFPPFHPGTMLDRDVGPTPMYPPTYLEPGIGRHTPYGNQTDYRIFELNKRLQNWTEECDNLWWDAFTTEFFEDDAMLTITFCLEDGPKRYTIGRTLIPRYFRSIFEGGATELYYVLKHPKEAFHSNFVSLDCDQGSMVTQHGKPMFTQVCVEGRLYLEFMFDDMMRIKTWHFSIRQHRELIPRSILAMHAQDPQMLDQLSKNITRCGLSNSTLNYLRLCVILEPMQELMSRHKTYSLSPRDCLKTCLFQKWQRMVAPPAEPTRQQPSKRRKRKMSGGSTMSSGGGNTNNSNSKKKSPASTFALSSQVPDVMVVGEPTLMGGEFGDEDERLITRLENTQFDAANGIDDEDSFNNSPALGANSPWNSKPPSSQESKSENPTSQASQ [LDB1]	-0.0611	54.2 °C	55.8 °C	-3.74	-2.44	-0.0659
MSVGFIGAGQLAYALARGFTAAGILSAHKIIASSPEMNLPTVSALRKMGVNLTRSNKETVKHSDVLFLAVKPHIIPFILDEIGADVQARHIVVSCAAGVTISSVEKKLMAFQPAPKVIRCMTNTPVVVQEGATVYATGTHALVEDGQLLEQLMSSVGFCTEVEEDLIDAVTGLSGSGPAYAFMALDALADGGVKMGLPRRLAIQLGAQALLGAAKMLLDSEQHPCQLKDNVCSPGGATIHALHFLESGGFRSLLINAVEASCIRTRELQSMADQEKISPAALKKTLLDRVKLESPTVSTLTPSSPGKLLTRSLALGGKKD [PYCR2]	-0.0672	54.9 °C	54.5 °C	1.32	-3.51	0.291
MSVTLHTDVGDIKIEVFCERTPKTCENFLALCASNYYNGCIFHRNIKGFMVQTGDPTGTGRGGNSIWGKKFEDEYSEYLKHNVRGVVSMANNGPNTNGSQFFITYGKQPHLDMKYTVFGKVIDGLETLDELEKLPVNEKTYRPLNDVHIKDITIHANPFAQ [PPIL3]	-0.00294	48.9 °C	50 °C	1.02	1.31	0.455
MSYDRAITVFSPDGHLFQVEYAQEAVKKGSTAVGVRGRDIVVLGVEKKSVAKLQDERTVRKICALDDNVCMAFAGLTADARIVINRARVECQSHRLTVEDPVTVEYITRYIASLKQRYTQSNGRRPFGISALIVGFDFDGTPRLYQTDPSGTYHAWKANAIGRGAKSVREFLEKNYTDEAIETDDLTIKLVIKALLEVVQSGGKNIELAVMRRDQSLKILNPEEIEKYVAEIEKEKEENEKKKQKKAS [PSMA7]	-0.0151	59 °C	62.2 °C	-1.05	-2.15	0.332
MSYTGFVQGSETTLQSTYSDTSAQPTCDYGYGTWNSGTNRGYEGYGYGYGYGQDNTTNYGYGMATSHSWEMPSSDTNANTSASGSASADSVLSRINQRLDMVPHLETDMMQGGVYGSGGERYDSYESCDSRAVLSERDLYRSGYDYSELDPEMEMAYEGQYDAYRDQFRMRGNDTFGPRAQGWARDARSGRPMASGYGRMWEDPMGARGQCMSGASRLPSLFSQNIIPEYGMFQGMRGGGAFPGGSRFGFGFGNGMKQMRRTWKTWTTADFRTKKKKRKQGGSPDEPDSKATRTDCSDNSDSDNDEGTEGEATEGLEGTEAVEKGSRVDGEDEEGKEDGREEGKEDPEKGALTTQDENGQTKRKLQAGKKSQDKQKKRQRDRMVERIQFVCSLCKYRTFYEDEMASHLDSKFHKEHFKYVGTKLPKQTADFLQEYVTNKTKKTEELRKTVEDLDGLIQQIYRDQDLTQEIAMEHFVKKVEAAHCAACDLFIPMQFGIIQKHLKTMDHNRNRRLMMEQSKKSSLMVARSILNNKLISKKLERYLKGENPFTDSPEEEKEQEEAEGGALDEGAQGEAAGISEGAEGVPAQPPVPPEPAPGAVSPPPPPPPEEEEEGAVPLLGGALQRQIRGIPGLDVEDDEEGGGGAP [AKAP8L]	0.0856	47.1 °C	48.8 °C	0.782	1.54	-0.123
MTAAENVCYTLINVPMDSEPPSEISLKNDLEKGDVKSKTEALKKVIIMILNGEKLPGLLMTIIRFVLPLQDHTIKKLLLVFWEIVPKTTPDGRLLHEMILVCDAYRKDLQHPNEFIRGSTLRFLCKLKEAELLEPLMPAIRACLEHRHSYVRRNAVLAIYTIYRNFEHLIPDAPELIHDFLVNEKDASCKRNAFMMLIHADQDRALDYLSTCIDQVQTFGDILQLVIVELIYKVCHANPSERARFIRCIYNLLQSSSPAVKYEAAGTLVTLSSAPTAIKAAAQCYIDLIIKESDNNVKLIVLDRLIELKEHPAHERVLQDLVMDILRVLSTPDLEVRKKTLQLALDLVSSRNVEELVIVLKKEVIKTNNVSEHEDTDKYRQLLVRTLHSCSVRFPDMAANVIPVLMEFLSDNNEAAAADVLEFVREAIQRFDNLRMLIVEKMLEVFHAIKSVKIYRGALWILGEYCSTKEDIQSVMTEIRRSLGEIPIVESEIKKEAGELKPEEEITVGPVQKLVTEMGTYATQSALSSSRPTKKEEDRPPLRGFLLDGDFFVAASLATTLTKIALRYVALVQEKKKQNSFVAEAMLLMATILHLGKSSLPKKPITDDDVDRISLCLKVLSECSPLMNDIFNKECRQSLSHMLSAKLEEEKLSQKKESEKRNVTVQPDDPISFMQLTAKNEMNCKEDQFQLSLLAAMGNTQRKEAADPLASKLNKVTQLTGFSDPVYAEAYVHVNQYDIVLDVLVVNQTSDTLQNCTLELATLGDLKLVEKPSPLTLAPHDFANIKANVKVASTENGIIFGNIVYDVSGAASDRNCVVLSDIHIDIMDYIQPATCTDAEFRQMWAEFEWENKVTVNTNMVDLNDYLQHILKSTNMKCLTPEKALSGYCGFMAANLYARSIFGEDALANVSIEKPIHQGPDAAVTGHIRIRAKSQGMALSLGDKINLSQKKTSI [COPB1]	-0.197	51.8 °C	51.7 °C	0.105	1.39	-0.149
MTAELQQDDAAGAADGHGSSCQMLLNQLREITGIQDPSFLHEALKASNGDITQAVSLLTDERVKEPSQDTVATEPSEVEGSAANKEVLAKVIDLTHDNKDDLQAAIALSLLESPKIQADGRDLNRMHEATSAETKRSKRKRCEVWGENPNPNDWRRVDGWPVGLKNVGNTCWFSAVIQSLFQLPEFRRLVLSYSLPQNVLENCRSHTEKRNIMFMQELQYLFALMMGSNRKFVDPSAALDLLKGAFRSSEEQQQDVSEFTHKLLDWLEDAFQLAVNVNSPRNKSENPMVQLFYGTFLTEGVREGKPFCNNETFGQYPLQVNGYRNLDECLEGAMVEGDVELLPSDHSVKYGQERWFTKLPPVLTFELSRFEFNQSLGQPEKIHNKLEFPQIIYMDRYMYRSKELIRNKRECIRKLKEEIKILQQKLERYVKYGSGPARFPLPDMLKYVIEFASTKPASESCPPESDTHMTLPLSSVHCSVSDQTSKESTSTESSSQDVESTFSSPEDSLPKSKPLTSSRSSMEMPSQPAPRTVTDEEINFVKTCLQRWRSEIEQDIQDLKTCIASTTQTIEQMYCDPLLRQVPYRLHAVLVHEGQANAGHYWAYIYNQPRQSWLKYNDISVTESSWEEVERDSYGGLRNVSAYCLMYINDKLPYFNAEAAPTESDQMSEVEALSVELKHYIQEDNWRFEQEVEEWEEEQSCKIPQMESSTNSSSQDYSTSQEPSVASSHGVRCLSSEHAVIVKEQTAQAIANTARAYEKSGVEAALSEVMLSPAMQGVILAIAKARQTFDRDGSEAGLIKAFHEEYSRLYQLAKETPTSHSDPRLQHVLVYFFQNEAPKRVVERTLLEQFADKNLSYDERSISIMKVAQAKLKEIGPDDMNMEEYKKWHEDYSLFRKVSVYLLTGLELYQKGKYQEALSYLVYAYQSNAALLMKGPRRGVKESVIALYRRKCLLELNAKAASLFETNDDHSVTEGINVMNELIIPCIHLIINNDISKDDLDAIEVMRNHWCSYLGQDIAENLQLCLGEFLPRLLDPSAEIIVLKEPPTIRPNSPYDLCSRFAAVMESIQGVSTVTVK [USP28]	-0.0214	48 °C	49.4 °C	0.432	0.537	0.0518
MTAPCSQPAQLPGRRQLGLVPFPPPPPRTPLLWLLLLLLAAVAPARGWESGDLELFDLVEEVQLNFYQFLGVQQDASSADIRKAYRKLSLTLHPDKNKDENAETQFRQLVAIYEVLKDDERRQRYDDILINGLPDWRQPVFYYRRVRKMSNAELALLLFIILTVGHYAVVWSIYLEKQLDELLSRKKREKKKKTGSKSVDVSKLGASEKNERLLMKPQWHDLLPCKLGIWFCLTLKALPHLIQDAGQFYAKYKETRLKEKEDALTRTELETLQKQKKVKKPKPEFPVYTPLETTYIQSYDHGTSIEEIEEQMDDWLENRNRTQKKQAPEWTEEDLSQLTRSMVKFPGGTPGRWEKIAHELGRSVTDVTTKAKQLKDSVTCSPGMVRLSELKSTVQNSRPIKTATTLPDDMITQREDAEGVAAEEEQEGDSGEQETGATDARPRRRKPARLLEATAKPEPEEKSRAKRQKDFDIAEQNESSDEESLRKERARSAEEPWTQNQQKLLELALQQYPRGSSDRWDKIARCVPSKSKEDCIARYKLLVELVQKKKQAKS [DNAJC1]	-0.0698	52.8 °C	52.8 °C	1.18	1.18	0.161
